From patent US20260125457A1 (Janssen / Centocor, published 2026)

T1: CALRins5 (mutant calreticulin, 5 base pair insertion, Type 2) expressed with MPL on engineered cancer cells (UniProt P27797 18-417)
T1 construct: whole, on cells; On the cell surface in complex with MPL; also called OCI-M2 MPL CALRins5
T1 sequence (looked up): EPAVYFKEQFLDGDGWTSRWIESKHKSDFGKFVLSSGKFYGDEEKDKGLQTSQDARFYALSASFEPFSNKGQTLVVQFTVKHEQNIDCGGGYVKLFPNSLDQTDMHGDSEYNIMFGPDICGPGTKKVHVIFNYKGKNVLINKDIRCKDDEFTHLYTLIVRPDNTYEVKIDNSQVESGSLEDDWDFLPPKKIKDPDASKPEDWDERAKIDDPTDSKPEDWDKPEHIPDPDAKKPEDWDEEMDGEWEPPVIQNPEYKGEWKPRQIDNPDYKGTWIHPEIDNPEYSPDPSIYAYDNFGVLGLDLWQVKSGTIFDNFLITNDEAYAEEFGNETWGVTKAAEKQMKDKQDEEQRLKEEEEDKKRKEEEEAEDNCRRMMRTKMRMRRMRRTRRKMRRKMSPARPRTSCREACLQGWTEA

T2: wild-type calreticulin (CALRwt) expressed with MPL in engineered cancer cells (UniProt P27797 18-417, limits assumed)
T2 construct: whole, on cells; also called OCI-M2 MPL CALRwt
T2 sequence (looked up): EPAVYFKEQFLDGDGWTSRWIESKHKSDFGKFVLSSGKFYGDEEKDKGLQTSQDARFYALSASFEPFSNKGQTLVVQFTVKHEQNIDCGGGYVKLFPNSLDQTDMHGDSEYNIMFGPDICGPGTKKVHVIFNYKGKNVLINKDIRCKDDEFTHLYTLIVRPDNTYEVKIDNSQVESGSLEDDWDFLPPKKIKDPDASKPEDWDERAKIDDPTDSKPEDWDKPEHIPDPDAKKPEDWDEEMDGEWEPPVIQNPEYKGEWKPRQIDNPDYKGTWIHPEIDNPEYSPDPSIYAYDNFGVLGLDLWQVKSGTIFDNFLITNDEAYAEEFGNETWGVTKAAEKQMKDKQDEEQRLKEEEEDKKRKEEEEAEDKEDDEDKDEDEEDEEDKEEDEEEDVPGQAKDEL

T3: CALRdel52 (mutant calreticulin, 52 base pair deletion, Type 1) expressed with MPL on engineered cancer cells (UniProt P27797 18-417)
T3 construct: whole, on cells; On the cell surface in complex with MPL; also called OCI-M2 MPL CALRdel52
T3 sequence (looked up): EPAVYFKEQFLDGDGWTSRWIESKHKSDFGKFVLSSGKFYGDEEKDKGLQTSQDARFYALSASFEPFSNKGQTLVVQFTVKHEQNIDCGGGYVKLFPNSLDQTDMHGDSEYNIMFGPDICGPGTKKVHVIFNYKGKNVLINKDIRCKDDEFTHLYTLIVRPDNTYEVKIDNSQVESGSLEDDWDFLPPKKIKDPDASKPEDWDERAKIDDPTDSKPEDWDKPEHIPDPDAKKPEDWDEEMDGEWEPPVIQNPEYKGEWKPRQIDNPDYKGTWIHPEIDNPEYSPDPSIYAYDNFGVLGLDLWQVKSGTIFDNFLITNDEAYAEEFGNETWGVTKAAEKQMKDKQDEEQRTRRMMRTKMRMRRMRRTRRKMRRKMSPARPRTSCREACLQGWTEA


Legend:
[1] = molecular target: T1, CALRins5 (mutant calreticulin, 5 base …); test: flow cytometry on OCI-M2 MPL CALRins5 cells, 1 h at 37 C, AF647 secondary antibody, Geometric mean
Experimental: (§1) FIGS. 27A-27F depict binding of different CALRmutxCD3 antibodies to CALRmut-negative or CALRmut-positive cells. Flow cytometry was used to evaluate CALRmutxCD3 binding to CALRmut-negative and CALRmut-positive cancer cells in vitro. CALRmutxCD3 antibodies were tested on a panel of cell lines, engineered to express MPL and CALRmut, after 1 hour 37° C. incubation, with subsequent incubation with secondary AF647-labeled antibody. Geometric mean fluorescence intensity of AF647 was measured to determine antibody binding.

[2] = molecular target: T1, CALRins5 (mutant calreticulin, 5 base …); test: flow cytometry on ELF-153 MPL CALRins5 cells, 1 h at 37 C, AF647 secondary antibody, Geometric mean
Experimental: as §1

[3] = molecular target: T2, wild-type calreticulin (CALRwt) …; test: flow cytometry on OCI-M2 MPL CALRwt cells, 1 h at 37 C, AF647 secondary antibody, Geometric mean
Experimental: as §1

[4] = molecular target: T4, CD3 on primary human pan T cells (human, UniProt P07766 23-207); test: flow cytometry on pan CD3 T cells, 1 h at 37 C, AF647 secondary antibody, Geometric Mean
T4 construct: whole, on cells; also called CD3e; CD3ε
T4 sequence (P07766 23-207): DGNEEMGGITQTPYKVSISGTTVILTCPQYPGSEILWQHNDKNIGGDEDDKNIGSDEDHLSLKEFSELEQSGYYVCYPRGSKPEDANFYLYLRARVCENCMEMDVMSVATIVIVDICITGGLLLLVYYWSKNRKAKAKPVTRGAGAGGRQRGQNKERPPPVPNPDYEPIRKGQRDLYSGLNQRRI
Experimental: FIG. 22 depicts binding of different CALRmutxCD3 bispecific antibodies to pan CD3 T cells. Flow cytometry was used to evaluate CALRmutxCD3 binding to pan CD3 T cells in vitro, by 1 hour 37° C. incubation, with subsequent incubation with secondary AF647-labeled antibody. Geometric mean fluorescence intensity of AF647 was measured to determine antibody binding.
Flow cytometry was used to evaluate the CD3 arm binding of CALRmutxCD3 antibodies listed in Table 21 to CD3+ pan T cells from healthy human donor. CALRmutxCD3 were tested after 1 hour 37° C. incubation with pan T cells.

[5] = molecular target: T3, CALRdel52 (mutant calreticulin, 52 base …); test: flow cytometry on OCI-M2 MPL CALRdel52 cells, 1 h at 37 C, AF647 secondary antibody, Geometric Mean
Experimental: as §1, with “FIGS. 21A-21F depict binding” for “FIGS. 27A-27F depict binding”, “different CALRmutxCD3 bispecific antibodies to” for “different CALRmutxCD3 antibodies to”

[6] = molecular target: T2, wild-type calreticulin (CALRwt) …; test: flow cytometry on ELF-153 MPL CALRwt cells, 1 h at 37 C, AF647 secondary antibody, Geometric Mean
Experimental: as §1, with “FIGS. 21A-21F depict binding” for “FIGS. 27A-27F depict binding”, “different CALRmutxCD3 bispecific antibodies to” for “different CALRmutxCD3 antibodies to”

Row | EC50 (read off the curve) [1] [nM] | EC50 (read off the curve) [2] [nM] | binding result [3] | binding result [4] | EC50 (read off the curve) [5] [nM] | binding result [6] | Binder
1 | ~3 | ~1 | no binding (tested: 100 nM) | – | – | – | C3CRB135 CALRmut x CD3 bispecific antibody (bispecific antibody, human IgG1, kappa, L234A L235A, Chain A heavy: CALRB421 heavy chain with CALRB1114 spFv at the C-terminus) heavy: EVQLLESGGGLVQPGGSLRLSCAVSGIDLSNNAISWVRQAPGKGLEYVGVIGNTGDTYYADSAKGRFTISRDSSKTTLYLQMNSLRAEDTAVYFCVRGPPSYSSSVKNIWGQGTLVTVSSASTKGPSVFPLAPSSKSTSGGTAALGCLVKDYFPEPVTVSWNSGALTSGVHTFPAVLQSSGLYSLSSVVTVPSSSLGTQTYICNVNHKPSNTKVDKKVEPKSCDKTHTCPPCPAPEAAGGPSVFLFPPKPKDTLMISRTPEVTCVVVSVSHEDPEVKFNWYVDGVEVHNAKTKPREEQYNSTYRVVSVLTVLHQDWLNGKEYKCKVSNKALPAPIEKTISKAKGQPREPQVYTLPPSREEMTKNQVSLSCAVKGFYPSDIAVEWESNGQPENNYKTTPPVLDSDGSFFLVSKLTVDKSRWQQGNVFSCSVMHEALHNRFTQKSLSLSPGKGGGGSGGGGSDIQMTQSPSTLSASVGDRVTITCQASQSLYNNKNLAWYQQKPGCAPKLLIYYASALASGVPSRFSGSGSGTEFTLTISSLQPDDFATYYCQGEFNCNSADCNSFGGGTKVEIKGGGSGGSGGCPPCGGSGGQVQLVQSGAEVKKPGASVKVSCKASGFSLSSYAMSWVRQAPGQGLEWMGVIDSGGTTYYAQKFQGRVTMTRDTSTSTVYMELSSLRSEDTAVYYCARESYAGYDYYGHPIPYGMEPWGCGTLVTVSSH light: DIQMTQSPSSVSASVGDRVTITCQSSQSVYNNNWLSWLQQKPGKAPKRLIYDASKLESGVPSRFSGSGSGTDFTLTISSVQPEDAATYYCAGGFTGNVYTFGGGTKVEIKRTVAAPSVFIFPPSDEQLKSGTASVVCLLNNFYPREAKVQWKVDNALQSGNSQESVTEQDSKDSTYSLSSTLTLSKADYEKHKVYACEVTHQGLSSPVTKSFNRGEC scFv: DIQMTQSPSSLSASVGDRVTITCRARQSIGTAIHWYQQKPGCAPKLLIKYASESISGVPSRFSGSGSGTDFTLTISSLQPEDFATYYCQQSGSWPYTFGQGTKLEIKGGGSGGSGGCPPCGGSGGEVQLVESGGGLVKPGGSLRLSCAASGFTFSRYNMNWVRQAPGKGLEWVSSISTSSNYIYYADSVKGRFTFSRDNAKNSLDLQMSGLRAEDTAIYYCTRGWGPFDYWGCGTLVTVSSEPKSSDKTHTCPPCPAPEAAGGPSVFLFPPKPKDTLMISRTPEVTCVVVSVSHEDPEVKFNWYVDGVEVHNAKTKPREEQYNSTYRVVSVLTVLHQDWLNGKEYKCKVSNKALPAPIEKTISKAKGQPREPQVYTLPPSREEMTKNQVSLWCLVKGFYPSDIAVEWESNGQPENNYKTTPPVLDSDGSFFLYSKLTVDKSRWQQGNVFSCSVMHEALHNHYTQKSLSLSPGK
2 | – | – | – | binds | ~1 | no binding (tested: 100 nM) | C3CRB126 CALRmut x CD3 bispecific antibody (bispecific antibody, human IgG1, kappa, L234A L235A, Chain A heavy: CALRB1114 Fab heavy part, CD3 spFv (LH), Fc; Chain B heavy: CALRB1114) heavy 1: QVQLVQSGAEVKKPGASVKVSCKASGFSLSSYAMSWVRQAPGQGLEWMGVIDSGGTTYYAQKFQGRVTMTRDTSTSTVYMELSSLRSEDTAVYYCARESYAGYDYYGHPIPYGMEPWGQGTLVTVSSASTKGPSVFPLAPSSKSTSGGTAALGCLVKDYFPEPVTVSWNSGALTSGVHTFPAVLQSSGLYSLSSVVTVPSSSLGTQTYICNVNHKPSNTKVDKKVEPKSCGGGGSGGGGSDIQMTQSPSSLSASVGDRVTITCRARQSIGTAIHWYQQKPGCAPKLLIKYASESISGVPSRFSGSGSGTDFTLTISSLQPEDFATYYCQQSGSWPYTFGQGTKLEIKGGGSGGSGGCPPCGGSGGEVQLVESGGGLVKPGGSLRLSCAASGFTFSRYNMNWVRQAPGKGLEWVSSISTSSNYIYYADSVKGRFTFSRDNAKNSLDLQMSGLRAEDTAIYYCTRGWGPFDYWGCGTLVTVSSEPKSSDKTHTCPPCPAPEAAGGPSVFLFPPKPKDTLMISRTPEVTCVVVSVSHEDPEVKFNWYVDGVEVHNAKTKPREEQYNSTYRVVSVLTVLHQDWLNGKEYKCKVSNKALPAPIEKTISKAKGQPREPQVYTLPPSREEMTKNQVSLWCLVKGFYPSDIAVEWESNGQPENNYKTTPPVLDSDGSFFLYSKLTVDKSRWQQGNVFSCSVMHEALHNHYTQKSLSLSPGK heavy 2: QVQLVQSGAEVKKPGASVKVSCKASGFSLSSYAMSWVRQAPGQGLEWMGVIDSGGTTYYAQKFQGRVTMTRDTSTSTVYMELSSLRSEDTAVYYCARESYAGYDYYGHPIPYGMEPWGQGTLVTVSSASTKGPSVFPLAPSSKSTSGGTAALGCLVKDYFPEPVTVSWNSGALTSGVHTFPAVLQSSGLYSLSSVVTVPSSSLGTQTYICNVNHKPSNTKVDKKVEPKSCDKTHTCPPCPAPEAAGGPSVFLFPPKPKDTLMISRTPEVTCVVVSVSHEDPEVKFNWYVDGVEVHNAKTKPREEQYNSTYRVVSVLTVLHQDWLNGKEYKCKVSNKALPAPIEKTISKAKGQPREPQVYTLPPSREEMTKNQVSLSCAVKGFYPSDIAVEWESNGQPENNYKTTPPVLDSDGSFFLVSKLTVDKSRWQQGNVFSCSVMHEALHNRFTQKSLSLSPGK light: DIQMTQSPSTLSASVGDRVTITCQASQSLYNNKNLAWYQQKPGKAPKLLIYYASALASGVPSRFSGSGSGTEFTLTISSLQPDDFATYYCQGEFNCNSADCNSFGGGTKVEIKRTVAAPSVFIFPPSDEQLKSGTASVVCLLNNFYPREAKVQWKVDNALQSGNSQESVTEQDSKDSTYSLSSTLTLSKADYEKHKVYACEVTHQGLSSPVTKSFNRGEC
